According to article doi:10.1101/334433 (bioRxiv, 2018):

Target: T1, GST-IRF4 (human, UniProt Q15306 1-451)
T1 sequence (looked up): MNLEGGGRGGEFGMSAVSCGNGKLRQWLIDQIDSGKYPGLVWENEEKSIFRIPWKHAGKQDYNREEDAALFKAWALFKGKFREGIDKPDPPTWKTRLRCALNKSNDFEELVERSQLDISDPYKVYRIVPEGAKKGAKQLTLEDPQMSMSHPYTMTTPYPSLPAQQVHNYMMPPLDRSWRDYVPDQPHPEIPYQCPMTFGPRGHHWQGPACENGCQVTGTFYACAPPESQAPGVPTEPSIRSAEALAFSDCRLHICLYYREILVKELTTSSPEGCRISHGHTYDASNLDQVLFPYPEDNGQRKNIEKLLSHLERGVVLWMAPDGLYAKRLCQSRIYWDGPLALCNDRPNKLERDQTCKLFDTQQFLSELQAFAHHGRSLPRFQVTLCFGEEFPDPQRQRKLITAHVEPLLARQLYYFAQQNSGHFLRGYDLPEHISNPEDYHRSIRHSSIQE
Test: pull-down

binding result: binds
B1: purified His-Peli1 (enzyme, human, UniProt Q96FA3 1-418, looked up)
chain: MFSPDQENHPSKAPVKYGELIVLGYNGSLPNGDRGRRKSRFALFKRPKANGVKPSTVHIACTPQAAKAISNKDQHSISYTLSRAQTVVVEYTHDSNTDMFQIGRSTESPIDFVVTDTVPGSQSNSDTQSVQSTISRFACRIICERNPPFTARIYAAGFDSSKNIFLGEKAAKWKTSDGQMDGLTTNGVLVMHPRNGFTEDSKPGIWREISVCGNVFSLRETRSAQQRGKMVEIETNQLQDGSLIDLCGATLLWRTAEGLSHTPTVKHLEALRQEINAARPQCPVGFNTLAFPSMKRKDVVDEKQPWVYLNCGHVHGYHNWGNKEERDGKDRECPMCRSVGPYVPLWLGCEAGFYVDAGPPTHAFSPCGHVCSEKTTAYWSQIPLPHGTHTFHAACPFCAHQLAGEQGYIRLIFQGPLD
